Where no end group is shown, it is not given here.
Experiments:
Capitella WaNaC^212912 = assay: Two-electrode voltage clamp of Xenopus oocytes expressing Capitella WaNaC 212912; assay type: cell-based, Capitella teleta
Experimental: (§1) Defolliculated stage V/VI oocytes from X. laevis were commercially acquired (Ecocyte Bioscience) and stored at 18 °C in 50% (in water) Leibovitz’s L-15 medium (Gibco) supplemented with additional 0.25 mg/ml gentamicin, 1 mM L-glutamine, and 15 mM Hepes, pH 7.6. Oocytes were injected with 2 ng cRNA (WT or mutant Aplysia FaNaC) and 2 to 60 ng cRNA (WT C. gigas XM_011442205.2, O. bimaculoides XM_014930938.1, L. gigantea XM_009055314.1_160261, P. fucata pfu_aug2.0_4392.1_09318.t1, C. teleta Capca1_207658, Capca1_52833, Capca1_185559, and Capca1_212912, M. lignano Mlig049925.g2, Mlig051885.g1, and Mlig041003.g1, P. australis g6004.t1 and g5063.t1 and R. norvegicus NP_077068.1 (rat ASIC1a) and respective mutants). Two-electrode voltage clamp experiments were performed 1 to 3 days after injection. The oocyte was placed in an RC-3Z bath (Warner Instruments) and bath solution (NaCl: 96 mM, KCl: 2 mM, CaCl2: 1.8 mM, MgCl2: 1 mM, Hepes: 5 mM; pH: 7.5) was perfused continuously and rapidly switched to bath solution containing peptide ligands via the VCS-8-pinch valve control perfusion system (Warner Instruments). […] Peptides were applied at varying concentrations between 30 nM and 100 μM for concentration-response experiments. […] Current recordings were analyzed in Clampfit 11.1 (Molecular Devices). […]

Crassostrea FaNaC = assay: Peptide-gated currents at oocytes expressing Crassostrea FaNaC; assay type: cell-based, Crassostrea gigas; conditions: peptides at 100 μM
Excerpt: (§2) Figure 1 Phylogenetic and experimental characterization of the FaNaC family.A, FaNaC branch from DEG/ENaC phylogeny (full phylogeny in Fig. S1). ∗Genes tested here. ∞Genes tested elsewhere. Genes in bold encode peptide-gated channels. aLRT support for key branches is shown. Blue background, broader FaNaC family; green background, annelid-specific branch of FaNaCs with diverse ligand sensitivity; pink background, Wamide-activated channels (WaNaCs). B, example peptide-gated currents at Xenopus oocytes expressing indicated genes. All peptide applications 100 μM, except for some at Capitella FaNaC: FMRFa, FLRPa, FLRFa, and FMKFa (3 μM); LFRYa (30 μM). The scale bars represent x, 10 s; y, 5 μA. C, mean (± SEM) normalized current response to different peptides (concentrations as in (B)) at oocytes expressing indicated channels. Lighter symbols are individual data points, n = 4 to 7. FaNaC, FMRFa-gated sodium channel; FMRFa, Phe-Met-Arg-Phe-amide.

Octopus FaNaC = assay: Peptide-gated currents at oocytes expressing Octopus FaNaC; assay type: cell-based, Octopus bimaculoides; conditions: peptides at 100 μM
Excerpt: as §2

rat ASIC1a [1] = target: T1, rat ASIC1a (Rattus norvegicus, UniProt P55926, S274A); assay: FRRFa enhancement of pH-gated currents at oocytes expressing WT or mutant rat ASIC1a; assay type: cell-based; conditions: S274A mutant; 50 μM FRRFa; n = 6
T1 construct: R. norvegicus NP_077068.1 (rat ASIC1a) and respective mutants; expressed in transfected cells; host or cells: Xenopus laevis oocytes (cRNA injection)
T1 sequence (P55926 1-526 S274A): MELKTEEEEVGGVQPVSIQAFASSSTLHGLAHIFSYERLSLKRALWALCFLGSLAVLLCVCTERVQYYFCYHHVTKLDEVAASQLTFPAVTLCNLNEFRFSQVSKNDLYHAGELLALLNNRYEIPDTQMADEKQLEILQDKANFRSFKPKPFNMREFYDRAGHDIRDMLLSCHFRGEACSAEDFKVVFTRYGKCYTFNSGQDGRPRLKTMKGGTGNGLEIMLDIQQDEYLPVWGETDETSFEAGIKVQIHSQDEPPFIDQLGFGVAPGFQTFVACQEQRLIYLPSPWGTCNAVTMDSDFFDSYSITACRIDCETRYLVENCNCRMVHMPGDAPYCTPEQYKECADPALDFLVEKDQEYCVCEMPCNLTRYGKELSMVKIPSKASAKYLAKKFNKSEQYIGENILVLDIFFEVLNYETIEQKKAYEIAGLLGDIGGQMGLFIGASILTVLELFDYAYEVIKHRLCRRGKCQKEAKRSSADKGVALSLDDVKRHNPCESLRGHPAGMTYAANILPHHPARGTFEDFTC
Experimental: (§3) Figure 6 Determinants of FRRFa modulation of rat ASIC1a.A, pH 5.3 (filled black bars)-gated currents after preincubation in desensitizing pH (unfilled bars) alone or in 50 μM FRRFa (blue bars) at oocytes expressing WT or mutant rat ASIC1a (rASIC1a). The scale bars represent x, 10 s; y, 200 nA. Desensitizing pH described in Figure S4. B, mean (± SEM, n = 4–7) enhancement (currentb/currenta from (A)) of desensitized current amplitude by 50 μM FRRFa at indicated rat ASIC1a mutants. ASIC, acid-sensing ion channel.
(§4) Figure S4. Measurement of steady state desensitization and peptide modulation of rat ASIC1a mutants. (A) Left, example currents at an oocyte expressing a rat ASIC1a mutant in response to decreasing pH. Right, mean (± SEM, n = 3-4) normalized currents in response to decreasing pH. (B) Left, example currents at an oocyte expressing a rat ASIC1a mutant in response to pH 5.3 after pre-incubation in decreasing pH. Right, mean (± SEM, n = 3-4) normalized currents in response to decreasing pre-incubation pH. This established that pH 6.9 was strongly desensitizing for WT and most mutants, and pH 6.7 was strongly desensitizing for mutants K246A and V377A. (C) Example experiment showing: current response to activating pH (5.3) after pre-incubation in resting pH 7.8; current response ("a") to activating pH after 20 s pre-incubation in desensitizing pH (6.7 for this mutant); and current response ("b") to activating pH after 20 s pre-incubation in desensitizing pH plus 50 μM FRRFa. Dividing current amplitude "b" by that of "a" gives fold-enhancement by FRRFa in Fig. 6B. All scale bars: x, 10 s; y, 10 μA.

rat ASIC1a [2] = target: T2, rat ASIC1a (Rattus norvegicus, UniProt P55926, K246A); assay: as above; assay type: cell-based; conditions: K246A mutant; 50 μM FRRFa; n = 6
T2 construct: R. norvegicus NP_077068.1 (rat ASIC1a) and respective mutants; expressed in transfected cells; host or cells: Xenopus laevis oocytes (cRNA injection)
T2 sequence (P55926 1-526 K246A): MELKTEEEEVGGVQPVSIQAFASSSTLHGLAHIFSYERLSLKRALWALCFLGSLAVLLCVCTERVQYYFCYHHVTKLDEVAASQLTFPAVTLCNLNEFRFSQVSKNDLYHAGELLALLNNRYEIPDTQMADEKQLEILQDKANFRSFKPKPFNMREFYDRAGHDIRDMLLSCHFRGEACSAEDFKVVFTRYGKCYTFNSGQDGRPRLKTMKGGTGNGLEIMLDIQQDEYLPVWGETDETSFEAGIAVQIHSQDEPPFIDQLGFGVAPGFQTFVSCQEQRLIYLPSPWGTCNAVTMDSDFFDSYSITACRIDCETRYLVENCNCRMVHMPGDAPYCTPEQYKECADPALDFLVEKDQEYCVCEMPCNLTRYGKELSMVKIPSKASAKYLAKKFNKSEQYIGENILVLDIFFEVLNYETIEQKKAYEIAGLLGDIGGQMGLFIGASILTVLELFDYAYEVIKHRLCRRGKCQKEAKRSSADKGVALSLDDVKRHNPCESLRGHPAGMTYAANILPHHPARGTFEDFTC
Experimental: as §3, §4

rat ASIC1a [3] = target: T3, rat ASIC1a (Rattus norvegicus, UniProt P55926); assay: as above; assay type: cell-based; conditions: WT; 50 μM FRRFa; pH 5.3 after preincubation in desensitizing pH; n = 7
T3 construct: R. norvegicus NP_077068.1 (rat ASIC1a) and respective mutants; expressed in transfected cells; host or cells: Xenopus laevis oocytes (cRNA injection)
T3 sequence (P55926 1-526): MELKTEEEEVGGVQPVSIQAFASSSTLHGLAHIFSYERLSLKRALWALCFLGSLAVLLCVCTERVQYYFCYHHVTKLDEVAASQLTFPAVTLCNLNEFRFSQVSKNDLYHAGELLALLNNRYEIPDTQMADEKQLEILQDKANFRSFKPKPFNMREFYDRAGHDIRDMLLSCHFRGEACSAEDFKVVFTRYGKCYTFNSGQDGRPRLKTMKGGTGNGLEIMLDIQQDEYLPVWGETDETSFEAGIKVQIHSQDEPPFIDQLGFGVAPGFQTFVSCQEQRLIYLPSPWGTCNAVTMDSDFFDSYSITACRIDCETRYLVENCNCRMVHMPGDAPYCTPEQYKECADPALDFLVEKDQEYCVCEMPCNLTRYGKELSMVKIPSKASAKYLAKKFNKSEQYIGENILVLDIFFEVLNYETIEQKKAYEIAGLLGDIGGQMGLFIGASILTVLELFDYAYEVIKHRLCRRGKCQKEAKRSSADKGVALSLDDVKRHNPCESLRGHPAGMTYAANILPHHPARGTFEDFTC
Experimental: as §3, §4

[4] = system: Malacoceros WaNaC^ON156824; assay: Two-electrode voltage clamp of Xenopus oocytes expressing Malacoceros WaNaC ON156824; assay type: cell-based, Malacoceros fuliginosus; conditions: WT channel, n = 9, mean ± SEM, read-out: KWGGNSRMWa EC50
Capitella FaNaC^52833 = assay: Two-electrode voltage clamp of Xenopus oocytes expressing Capitella FaNaC 52833; assay type: cell-based, Capitella teleta; conditions: WT; LFRYa 30 μM
Experimental: as §1

[5] = target: Malacoceros fuliginosus WaNaC^ON156824 (Malacoceros fuliginosus)
[6] = target: Malacoceros fuliginosus FaNaC^ON156826 (Malacoceros fuliginosus)
[7] = target: Malacoceros fuliginosus FaNaC^ON156825 (Malacoceros fuliginosus)
[8] = target: Capitella teleta FaNaC^52833 (Capitella teleta)
[9] = target: Aplysia kurodai FaNaC (FMRFa-gated sodium channel) (Aplysia kurodai)
[10] = target: Aplysia kurodai FaNaC S184A (Aplysia kurodai)
rat ASIC1a S274A (rat) = target: T4, rat ASIC1a S274A (rat) (UniProt P55926)
T4 sequence: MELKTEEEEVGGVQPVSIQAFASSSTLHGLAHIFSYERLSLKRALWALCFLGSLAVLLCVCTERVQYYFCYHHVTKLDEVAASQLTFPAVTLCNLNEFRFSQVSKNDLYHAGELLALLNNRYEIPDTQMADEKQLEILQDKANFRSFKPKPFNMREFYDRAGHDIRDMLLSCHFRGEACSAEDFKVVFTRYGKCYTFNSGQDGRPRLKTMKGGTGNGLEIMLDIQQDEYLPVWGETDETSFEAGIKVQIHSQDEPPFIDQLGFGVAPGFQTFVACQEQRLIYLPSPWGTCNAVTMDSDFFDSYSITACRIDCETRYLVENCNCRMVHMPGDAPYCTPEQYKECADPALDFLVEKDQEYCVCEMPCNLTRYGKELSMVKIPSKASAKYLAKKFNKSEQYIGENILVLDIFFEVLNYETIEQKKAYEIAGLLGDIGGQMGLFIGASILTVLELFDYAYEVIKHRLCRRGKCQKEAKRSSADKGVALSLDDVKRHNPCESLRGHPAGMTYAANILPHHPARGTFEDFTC

[11] = target: T5, rat ASIC1a (acid-sensing ion channel 1a) (rat) (UniProt P55926)
T5 sequence: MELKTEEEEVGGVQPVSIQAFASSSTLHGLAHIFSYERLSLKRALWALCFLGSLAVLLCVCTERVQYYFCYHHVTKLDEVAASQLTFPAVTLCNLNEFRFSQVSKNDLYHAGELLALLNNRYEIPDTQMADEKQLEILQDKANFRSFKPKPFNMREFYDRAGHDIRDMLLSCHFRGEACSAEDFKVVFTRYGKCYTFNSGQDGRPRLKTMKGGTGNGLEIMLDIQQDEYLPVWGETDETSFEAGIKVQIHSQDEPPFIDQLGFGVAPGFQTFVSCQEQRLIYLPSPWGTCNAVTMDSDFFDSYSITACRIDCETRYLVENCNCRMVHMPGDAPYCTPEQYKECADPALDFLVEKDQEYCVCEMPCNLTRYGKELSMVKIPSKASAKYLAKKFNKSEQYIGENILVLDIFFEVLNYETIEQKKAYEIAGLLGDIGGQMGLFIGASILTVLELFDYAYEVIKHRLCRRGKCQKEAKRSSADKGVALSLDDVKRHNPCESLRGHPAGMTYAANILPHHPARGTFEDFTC

[12] = target: Capitella teleta WaNaC^212912 (Wamide-gated sodium channel) (Capitella teleta)

AWVGDKSLSW-NH2 [AWVGDKSLSWa]
AWVGDKSLSWa-gated currents (Capitella WaNaC^212912; R255Q, R291N and R472Q mutations): abolished | EC50 (Capitella WaNaC^212912; WT channel, Xenopus oocytes, n = 8, mean ± SEM, read-out: AWVGDKSLSWa EC50): 2000 ± 200 nM

FLRFa: peptide encoded by the Octopus FMRFa propeptide (FLRF-NH2)
current amplitude relative to FMRFa (Crassostrea FaNaC): slightly larger currents than FMRFa | current amplitude relative to FMRFa (Octopus FaNaC): larger currents than FMRFa

FMKFa: peptide encoded by the Octopus FMRFa propeptide (FMKF-NH2)
current amplitude relative to FMRFa (Octopus FaNaC): larger currents than FMRFa

FRRFa: synthetic FMRFa analog that enhances ASICs (FRRF-NH2)
enhancement of pH-gated currents (rat ASIC1a [1]): 2 ± 0.3 fold | enhancement of pH-gated currents (rat ASIC1a [2]): not ostensibly enhanced at all | enhancement of pH-gated currents (rat ASIC1a [3]): 10 ± 3 fold

KWGGNSRMW-NH2 [KWGGNSRMWa]
EC50 [4]: 340 ± 100 nM

LFRYa: product of the RYamide propeptide from Capitella (LFRY-NH2)
current response to peptide (Capitella FaNaC^52833): small currents

B1: …a (peptide)
peptide: KWGGNSRMW-NH2
EC50 of peptide-gated current, two-electrode voltage clamp on Xenopus oocytes [5]: 340 nM

B2: FMRFamide (Phe-Met-Arg-Phe-amide) (peptide)
peptide: FMRF-NH2
EC50 of peptide-gated current, two-electrode voltage clamp on Xenopus oocytes [6]: 11000 nM | EC50 of peptide-gated current, two-electrode voltage clamp on Xenopus oocytes [7]: 230 nM | EC50 of peptide-gated current, two-electrode voltage clamp on Xenopus oocytes [8]: 350 nM | EC50 of FMRFa-gated current, two-electrode voltage clamp on Xenopus oocytes [9]: 3400 nM | I (3 μM)/I (30 μM) ratio of FMRFa potency (3 μM FMRFa-gated current amplitude/30 μM FMRFa-gated current amplitude) [9]: 0.64 | EC50 of FMRFa-gated current, full concentration-response, two-electrode voltage clamp on Xenopus oocytes [10]: 30000 nM

B3: FRRFa (peptide)
peptide: FRRF-NH2
fold enhancement of desensitized pH 5.3-gated current by 50 μM FRRFa, two-electrode voltage clamp on Xenopus oocytes (rat ASIC1a S274A (rat)): 2 fold | fold enhancement of desensitized pH 5.3-gated current by 50 μM FRRFa, two-electrode voltage clamp on Xenopus oocytes [11]: 10 fold

B4: …a (peptide)
peptide: AWVGDKSLSW-NH2
EC50 of peptide-gated current, two-electrode voltage clamp on Xenopus oocytes [12]: 2000 nM
